Test results reported in doi:10.1101/2024.09.12.612744 (bioRxiv, 2024).

How the values were obtained:
[1] = biological target: the molecule itself; assay: SEC
[2] = biological target: the molecule itself; assay: cryo-EM structure

Protein	binding result [1]	stoichiometry N [2]
PKD2 WT channel (hPKD2: 52-793) (domain or fragment, human, UniProt Q13563 52-793, looked up) LEIEMQRIRQAAARDPPAGAAASPSPPLSSCSRQAWSRDNPGFEAEEEEEEVEGEEGGMVVEMDVEWRPGSRRSAASSAVSSVGARSRGLGGYHGAGHPSGRRRRREDQGPPCPSPVGGGDPLHRHLPLEGQPPRVAWAERLVRGLRGLWGTRLMEESSTNREKYLKSVLRELVTYLLFLIVLCILTYGMMSSNVYYYTRMMSQLFLDTPVSKTEKTNFKTLSSMEDFWKFTEGSLLDGLYWKMQPSNQTEADNRSFIFYENLLLGVPRIRQLRVRNGSCSIPQDLRDEIKECYDVYSVSSEDRAPFGPRNGTAWIYTSEKDLNGSSHWGIIATYSGAGYYLDLSRTREETAAQVASLKKNVWLDRGTRATFIDFSVYNANINLFCVVRLLVEFPATGGVIPSWQFQPLKLIRYVTTFDFFLAACEIIFCFFIFYYVVEEILEIRIHKLHYFRSFWNCLDVVIVVLSVVAIGINIYRTSNVEVLLQFLEDQNTFPNFEHLAYWQIQFNNIAAVTVFFVWIKLFKFINFNRTMSQLSTTMSRCAKDLFGFAIMFFIIFLAYAQLAYLVFGTQVDDFSTFQECIFTQFRIILGDINFAEIEEANRVLGPIYFTTFVFFMFFILLNMFLAIINDTYSEVKSDLAQQKAEMELSDLIRKGYHKALVKLKLKKNTVDDISESLRQGGGKLNFDELRQDLKGKGHTDAEIEAIFTKYDQDGDQELTEHEHQQMRDDLEKEREDLDLDH	binds	–
PKD2 F629S variant channel (hPKD2: 52-793) (domain or fragment, human, UniProt Q13563 52-793, looked up) LEIEMQRIRQAAARDPPAGAAASPSPPLSSCSRQAWSRDNPGFEAEEEEEEVEGEEGGMVVEMDVEWRPGSRRSAASSAVSSVGARSRGLGGYHGAGHPSGRRRRREDQGPPCPSPVGGGDPLHRHLPLEGQPPRVAWAERLVRGLRGLWGTRLMEESSTNREKYLKSVLRELVTYLLFLIVLCILTYGMMSSNVYYYTRMMSQLFLDTPVSKTEKTNFKTLSSMEDFWKFTEGSLLDGLYWKMQPSNQTEADNRSFIFYENLLLGVPRIRQLRVRNGSCSIPQDLRDEIKECYDVYSVSSEDRAPFGPRNGTAWIYTSEKDLNGSSHWGIIATYSGAGYYLDLSRTREETAAQVASLKKNVWLDRGTRATFIDFSVYNANINLFCVVRLLVEFPATGGVIPSWQFQPLKLIRYVTTFDFFLAACEIIFCFFIFYYVVEEILEIRIHKLHYFRSFWNCLDVVIVVLSVVAIGINIYRTSNVEVLLQFLEDQNTFPNFEHLAYWQIQFNNIAAVTVFFVWIKLFKFINFNRTMSQLSTTMSRCAKDLFGFAIMFFIIFLAYAQLAYLVFGTQVDDFSTSQECIFTQFRIILGDINFAEIEEANRVLGPIYFTTFVFFMFFILLNMFLAIINDTYSEVKSDLAQQKAEMELSDLIRKGYHKALVKLKLKKNTVDDISESLRQGGGKLNFDELRQDLKGKGHTDAEIEAIFTKYDQDGDQELTEHEHQQMRDDLEKEREDLDLDH	–	4
PKD2 R638C variant channel (hPKD2: 52-793) (domain or fragment, human, UniProt Q13563 52-793, looked up) LEIEMQRIRQAAARDPPAGAAASPSPPLSSCSRQAWSRDNPGFEAEEEEEEVEGEEGGMVVEMDVEWRPGSRRSAASSAVSSVGARSRGLGGYHGAGHPSGRRRRREDQGPPCPSPVGGGDPLHRHLPLEGQPPRVAWAERLVRGLRGLWGTRLMEESSTNREKYLKSVLRELVTYLLFLIVLCILTYGMMSSNVYYYTRMMSQLFLDTPVSKTEKTNFKTLSSMEDFWKFTEGSLLDGLYWKMQPSNQTEADNRSFIFYENLLLGVPRIRQLRVRNGSCSIPQDLRDEIKECYDVYSVSSEDRAPFGPRNGTAWIYTSEKDLNGSSHWGIIATYSGAGYYLDLSRTREETAAQVASLKKNVWLDRGTRATFIDFSVYNANINLFCVVRLLVEFPATGGVIPSWQFQPLKLIRYVTTFDFFLAACEIIFCFFIFYYVVEEILEIRIHKLHYFRSFWNCLDVVIVVLSVVAIGINIYRTSNVEVLLQFLEDQNTFPNFEHLAYWQIQFNNIAAVTVFFVWIKLFKFINFNRTMSQLSTTMSRCAKDLFGFAIMFFIIFLAYAQLAYLVFGTQVDDFSTFQECIFTQFCIILGDINFAEIEEANRVLGPIYFTTFVFFMFFILLNMFLAIINDTYSEVKSDLAQQKAEMELSDLIRKGYHKALVKLKLKKNTVDDISESLRQGGGKLNFDELRQDLKGKGHTDAEIEAIFTKYDQDGDQELTEHEHQQMRDDLEKEREDLDLDH	–	4
